Assay results reported in US20260209301A1, “Galanin-2 Receptor Agonists” (LIFEARC, priority 2022, published 2026).

Key:
cynomolgus GalR2 = assay: Calcium assay at orthologue receptor; type: cell-based, Macaca fascicularis; details: Table 8; Calcium assays; mean +/− standard deviation
Source text: (§1) These species were chosen as they represent potential downstream in vivo models to be used. Within native galanin amino acid residues 1-15 are conserved across species, we would therefore expect the Gal FC fusions comprising amino acids 2 to 13 to retain GalR2 activity in these species. Calcium imaging was used to define receptor activity.

GALR3 = molecular target: T1, GALR3 (Homo sapiens, UniProt O60755); assay: Luciferase reporter gene assay (SRE), HEK293 Gqi cells; type: cell-based
T1 construct: expressed in transfected cells; host or cells: genetically modified HEK293 Gqi cells, transient
T1 sequence (O60755 1-368): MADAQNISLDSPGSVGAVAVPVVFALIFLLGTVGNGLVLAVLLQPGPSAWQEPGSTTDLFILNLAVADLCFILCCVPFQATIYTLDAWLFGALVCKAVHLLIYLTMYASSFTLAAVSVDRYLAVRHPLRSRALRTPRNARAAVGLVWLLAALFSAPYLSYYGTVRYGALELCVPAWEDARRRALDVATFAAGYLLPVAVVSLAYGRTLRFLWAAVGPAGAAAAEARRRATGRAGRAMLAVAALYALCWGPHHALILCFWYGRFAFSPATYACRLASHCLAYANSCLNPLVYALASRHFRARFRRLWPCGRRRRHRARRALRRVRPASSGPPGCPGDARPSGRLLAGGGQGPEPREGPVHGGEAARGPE
Method: GalR3 activity was measured, alongside GalR1 and GalR2, using a luciferase reporter assay. A reporter plasmid and a receptor plasmid, were transiently transfected into the target cell line. The reporter plasmid contains a serum response element (SRE) or a nuclear factor of activated T-cells response element (NFAT-RE) which is coupled to a luciferase transcript and induces expression of the luciferase upon a specific G-protein (Gai uses SRE; Gaq uses NFAT-RE) activation. The target receptor is constantly expressed after cell transfection. For GALR1 and GALR3 screening, genetically modified HEK293 Gqi cells were transiently transfected with the SRE reporter and the receptor (GALR1 and GALR3) plasmids. For GALR2 screening, HEK293 cells were transiently transfected with the NFAT-RE reporter and the receptor (GALR2) plasmid. […] The luciferase activity was analyzed with the Bright-Glo Luciferase Assay (Promega) in an EnSpire plate reader.
Therefore, to measure activity at the GalR3 receptor a reporter gene assay was used. In this system MAP/ERK signalling is used to measure receptor activity. Activation of Gqi coupled receptors leads to downstream activation of ERK1/2. The activated ERK translocates to the nucleus where it phosphorylates and activates transcription factors, which lead to the binding of Serum response element (SRE). In this assay SRE activation induces expression of a luciferase reporter gene. […] To ensure this effect was not an artifact of the reporter gene assay, GalR1 and GalR2 reporter assays (using SRE and NFAT-RE respectively) were also run.

mouse GalR2 = molecular target: T2, mouse GalR2 (Mus musculus, UniProt O88854); assay: Calcium assay at orthologue receptor; type: cell-based; details: Table 8; Calcium assays; mean +/− standard deviation
T2 sequence (O88854 1-371): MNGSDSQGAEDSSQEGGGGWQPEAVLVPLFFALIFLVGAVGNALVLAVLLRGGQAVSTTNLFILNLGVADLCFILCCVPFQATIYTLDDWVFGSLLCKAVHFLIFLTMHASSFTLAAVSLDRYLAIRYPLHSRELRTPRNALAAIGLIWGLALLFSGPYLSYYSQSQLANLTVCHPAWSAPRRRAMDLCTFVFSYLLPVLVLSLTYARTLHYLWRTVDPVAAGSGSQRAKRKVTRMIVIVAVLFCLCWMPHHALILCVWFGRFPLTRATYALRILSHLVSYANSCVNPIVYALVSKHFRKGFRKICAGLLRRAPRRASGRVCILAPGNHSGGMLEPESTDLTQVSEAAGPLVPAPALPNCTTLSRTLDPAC
Source text: as §1

GALR2 = molecular target: T3, GALR2 (Homo sapiens, UniProt O43603); assay: β-arrestin recruitment, PathHunter CHO-K1 GALR2 cells; type: cell-based; details: Table 2; mean +/− standard deviation, n ≥ 3
T3 sequence (O43603 1-387): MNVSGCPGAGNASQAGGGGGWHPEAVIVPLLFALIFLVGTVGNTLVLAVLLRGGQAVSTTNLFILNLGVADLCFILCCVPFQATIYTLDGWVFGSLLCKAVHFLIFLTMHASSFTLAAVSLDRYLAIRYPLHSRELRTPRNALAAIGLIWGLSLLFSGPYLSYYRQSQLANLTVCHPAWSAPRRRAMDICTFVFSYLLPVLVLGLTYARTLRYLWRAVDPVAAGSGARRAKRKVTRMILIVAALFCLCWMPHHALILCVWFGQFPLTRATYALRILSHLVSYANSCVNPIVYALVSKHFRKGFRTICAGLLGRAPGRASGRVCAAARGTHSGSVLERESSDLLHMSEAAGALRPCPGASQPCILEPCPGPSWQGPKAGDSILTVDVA
Method: Ligands were prepared at half log dilutions using cell plating reagent 2. 5 μl of each ligand was added to cells and plates incubated at 37° C. for 90 minutes. DiscoverX PathHunter detection kit (DiscoverX, USA) was added to cells as described my manufacturer's guidelines and plates incubated for 60 minutes at room temperature in the dark. Chemiluminescent signal was measured using the PHERAstar FS (BMG, Germany).

In the case of “Gal2-13FC: galanin 2-13, AEAAAKEAAAKA linker, human IgG1 FC; SEQ ID NO: 7”, the “Cynomolgus GalR2 activity” value (cynomolgus GalR2) is reported as 7.7 +/− 0.4, the “activity at GalR3 (in words)” value (GALR3) is reported as “no measurable activity” and the “Mouse GalR2 activity” value (mouse GalR2) is reported as 6.4 +/− 0.3. For the same substance, the “GalR2 Beta Arrestin, mean pEC50” value (GALR2) was 6.7 +/− 0.2.
In the case of “Gal2-30FC: galanin 2-30, AEAAAKEAAAKA linker, human IgG1 FC; SEQ ID NO: 28”, the “Cynomolgus GalR2 activity” value (cynomolgus GalR2) is reported as 8.4 +/− 0.1, the “activity at GalR3 (in words)” value (GALR3) is reported as “no measurable activity” and the “Mouse GalR2 activity” value (mouse GalR2) is reported as 7.0 +/− 0.1. For the same substance, the “GalR2 Beta Arrestin, mean pEC50” value (GALR2) was 7.3 +/− 0.2.
